# The RNAGym collection of RNA variant scans (doi:10.7554/elife.90254)
# B1: OR4K15 (parent)
# chain: GUUAACGGUCAUAGGCCAUGGAAACUAGGAGCACCAUUUCGCUGCCAGUGAAGAAAUGAACAAAGAAAAUCUGGGCCAGGCAGGCAUCAAAAGAAAUAGUCUUGCGCUCAACCAGAAAGUCUGUAAUCAUUUUAAGGGUA
# Variants of: B1
# Assay: self-cleavage, relative activity (ratio to wild type); higher = more cleavage; in vitro, sequencing; the parent is a self-cleaving ribozyme
row,Variant,self-cleavage
1,U57C A111G,0.01
2,A54G A96U,2.04
3,U57A U102C,0.78
4,A56C A69G,1.24
5,A54G A91C,1.05
6,A54G A91G,1.18
7,A54G U120A,1.89
8,A54G U120C,0.3
9,A55G,1.06
10,A55U,1.13
11,A55C,0.94
12,A55U U120C,0.86
13,A55G G93U,1.76
14,U57A A82U,0.31
15,A56G A118G,1.19
16,A56G A68C,2.25
17,A56G A125G,0.51
18,A56G A125U,1.32
19,A55U U139C,0.56
20,A54G U57A,1.26
21,U57A U131C,1.07
22,A55G U87C,0.64
23,A56G U103C,0.25
24,A56G U103A,0.04

row,Variant,self-cleavage
1,A56C A117U,0.96
2,A56G A116G,0.66
3,A55G A86G,1.17
4,A56U U97C,1.16
5,A54G G104A,0.09
6,A54U U127C,0.18
7,A55U A96C,0.74
8,A56G U139A,1.41
9,A56G U139C,0.78
10,A56C A59G,1.51
11,A56G U97A,2.36
12,A55U U124A,1.07
13,A55G C77U,1.41
14,A56G A140U,2.1
15,U57A A68U,1.15
16,U57C C88U,1.04
17,A54U A63G,1.93
18,A56U U127C,1.47
19,A56G G119A,2.09
20,A54G U127C,1.07
21,A55G G106U,0.02
22,A54G C81U,0.19
23,A55U A111G,0.02
24,A54G G106U,0.02

row,Variant,self-cleavage
1,A56G A92G,1.68
2,A56G A92U,2.54
3,A54G C105A,0.06
4,A56G A94U,1.08
5,A54U U103G,0.04
6,A54U U103C,1.26
7,U57C A68G,0.95
8,A55G A66G,1.4
9,A56G C107A,0.02
10,U57A G106A,0.01
11,A56U A59G,1.62
12,A55G U132C,1.46
13,A55G U132A,1.61
14,A56C A116U,0.13
15,A54G A117U,0.91
16,A56G A86G,0.8
17,A56G A86U,1.67
18,A56G A86C,1.48
19,A54U,1.2
20,A55G G119C,1.03
21,U57A U130A,0.77
22,A56G A63U,1.68
23,U57C C121U,2.46
24,U57C C121A,1.91

row,Variant,self-cleavage
1,A55G C76A,0.55
2,A56G G83U,0.73
3,A55G U57G,1.41
4,A55G U57C,1.13
5,A55U A89U,0.56
6,A55G U72C,0.28
7,A55G U72A,0.19
8,A55G A64U,2.41
9,A55G A64G,0.88
10,A56G A126G,0.36
11,A56C U108C,0.01
12,A54G A94C,1.32
13,A54G A94G,1.2
14,U57C A62G,0.7
15,A54G U132A,1.73
16,A54U A125G,0.83
17,A55G U131C,1.63
18,A55U U131C,2
19,A54G A110G,0.21
20,A54G A110C,0.2
21,A54G U100A,0.57
22,U57C A89U,0.77
23,A54G A98U,2.61
24,A55U A64G,1.76

row,Variant,self-cleavage
1,A55U A98G,0.19
2,A55U A98U,2.38
3,A54G U124C,0.75
4,A55U A56C,2.18
5,A56U A126U,0.81
6,A56U A126G,1.34
7,U57A A98C,1.24
8,U57A A98G,0.42
9,A56G U132A,2.05
10,A54U U131C,1.11
11,A55U A126G,1.47
12,A54U U100A,0.59
13,A55G U97A,1.51
14,A55G U97C,1.27
15,A55G U103C,1.06
16,A55G U103A,0.46
17,A56G U133C,1.43
18,A54G A116G,0.75
19,A54G A116U,0.27
20,A56G U122C,0.91
21,A54U U70C,0.53
22,U57C G73A,0.15
23,A55U U132C,2.21
24,A54G U130C,0.76

row,Variant,self-cleavage
1,A54G U130A,1.11
2,U57A G136A,1.37
3,U57A A78U,0.16
4,A56G G74U,0.14
5,A54G A95G,1.81
6,A55G A117G,0.76
7,A55G U70C,0.29
8,A56G G115U,0.03
9,A56G G115A,0.11
10,A55G A69G,0.78
11,A55G A69U,0.23
12,A55G U102A,0.81
13,A56G A67G,0.97
14,U57A A86G,1.09
15,A55G A59U,1.13
16,A54U G115U,0.03
17,U57A U100C,2.19
18,A54U A78C,0.29
19,A54U A78G,0.25
20,A54U A78U,0.29
21,U57A U108A,0.03
22,U57A U108C,0.02
23,A55G A110C,0.2
24,U57A G123C,1.58

row,Variant,self-cleavage
1,U57C A82G,0.49
2,A55G A125G,0.45
3,U57A A118G,1.37
4,A54G A92G,1.37
5,A56C U133A,1.4
6,A56G A59G,1.2
7,A56G,0.72
8,A56C,1.33
9,A56U,1.54
10,A54G G75U,0.12
11,U57C A60G,1.01
12,U57C A60U,1.78
13,A54G A69C,1.39
14,A54G A69G,1.1
15,A55U A82G,0.61
16,A54U G74U,0.02
17,A55G G115A,0.14
18,A55G G115U,0.03
19,A56G A90G,1.03
20,U57C A69C,0.84
21,U57A A92G,1.42
22,A55G A134G,1.23
23,A54G A90G,0.86
